# According to patent EP1165781B1 (ELI LILLY AND COMPANY, dated 2007):
# T1: FLINT (FAS Ligand Inhibitory Protein), mature human FLINT (human, UniProt O95407 30-300)
# T1 construct: also called mature FLINT; native FLINT
# T1 sequence: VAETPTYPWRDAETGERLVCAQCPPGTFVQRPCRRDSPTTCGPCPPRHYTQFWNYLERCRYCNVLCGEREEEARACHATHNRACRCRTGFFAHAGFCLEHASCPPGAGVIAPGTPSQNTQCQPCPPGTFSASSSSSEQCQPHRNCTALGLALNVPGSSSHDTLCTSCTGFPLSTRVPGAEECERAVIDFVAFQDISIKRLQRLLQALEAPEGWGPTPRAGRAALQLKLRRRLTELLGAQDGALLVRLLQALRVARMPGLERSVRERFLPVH
# Legend:
# [1] = target: FasLigand (monomer) (Homo sapiens (Human)) (UniProt P48023); experiment: SPR (Biacore 2000), FasL amine-coupled to CM5 chip, Fas in solution
# [2] = target: T1, FLINT (FAS Ligand Inhibitory Protein), …; experiment: SPR (Biacore 2000), FasL amine-coupled to CM5 chip, FLINT in solution
# Fas/Fc chimera (R&D Systems) (Fc fusion), sequence (P25445 26-173, change not shown): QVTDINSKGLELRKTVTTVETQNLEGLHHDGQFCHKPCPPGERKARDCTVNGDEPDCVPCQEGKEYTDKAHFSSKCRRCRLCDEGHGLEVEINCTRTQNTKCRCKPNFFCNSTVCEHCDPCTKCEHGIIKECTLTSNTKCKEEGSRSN
Kd [1],Kd [2],Molecule
162 nM,–,Fas/Fc chimera (R&D Systems) (Fc fusion)
–,113 nM,"FasLigand (monomer) (ligand, Amine-coupled through lysines to a CM5 chip., Amine-coupled to a CM5 chip; also called Fas Ligand (Kamiya Biomedical Company)) QLFHLQKELAELRESTSQMHTASSLEKQIGHPSPPPEKKELRKVAHLTGKSNSRSMPLEWEDTYGIVLLSGVKYKKGGLVINETGLYFVYSKVYFRGQSCNNLPLSHKVYMRNSKYPQDLVMMEGKMMSYCTTGQMWARSSYLGAVFNLTSADHLYVNVSELSLVNFEESQTFFGLYKL"
